B1: MYO3 (protein, UniProt P36006 1-1272, looked up)
Myosin-3: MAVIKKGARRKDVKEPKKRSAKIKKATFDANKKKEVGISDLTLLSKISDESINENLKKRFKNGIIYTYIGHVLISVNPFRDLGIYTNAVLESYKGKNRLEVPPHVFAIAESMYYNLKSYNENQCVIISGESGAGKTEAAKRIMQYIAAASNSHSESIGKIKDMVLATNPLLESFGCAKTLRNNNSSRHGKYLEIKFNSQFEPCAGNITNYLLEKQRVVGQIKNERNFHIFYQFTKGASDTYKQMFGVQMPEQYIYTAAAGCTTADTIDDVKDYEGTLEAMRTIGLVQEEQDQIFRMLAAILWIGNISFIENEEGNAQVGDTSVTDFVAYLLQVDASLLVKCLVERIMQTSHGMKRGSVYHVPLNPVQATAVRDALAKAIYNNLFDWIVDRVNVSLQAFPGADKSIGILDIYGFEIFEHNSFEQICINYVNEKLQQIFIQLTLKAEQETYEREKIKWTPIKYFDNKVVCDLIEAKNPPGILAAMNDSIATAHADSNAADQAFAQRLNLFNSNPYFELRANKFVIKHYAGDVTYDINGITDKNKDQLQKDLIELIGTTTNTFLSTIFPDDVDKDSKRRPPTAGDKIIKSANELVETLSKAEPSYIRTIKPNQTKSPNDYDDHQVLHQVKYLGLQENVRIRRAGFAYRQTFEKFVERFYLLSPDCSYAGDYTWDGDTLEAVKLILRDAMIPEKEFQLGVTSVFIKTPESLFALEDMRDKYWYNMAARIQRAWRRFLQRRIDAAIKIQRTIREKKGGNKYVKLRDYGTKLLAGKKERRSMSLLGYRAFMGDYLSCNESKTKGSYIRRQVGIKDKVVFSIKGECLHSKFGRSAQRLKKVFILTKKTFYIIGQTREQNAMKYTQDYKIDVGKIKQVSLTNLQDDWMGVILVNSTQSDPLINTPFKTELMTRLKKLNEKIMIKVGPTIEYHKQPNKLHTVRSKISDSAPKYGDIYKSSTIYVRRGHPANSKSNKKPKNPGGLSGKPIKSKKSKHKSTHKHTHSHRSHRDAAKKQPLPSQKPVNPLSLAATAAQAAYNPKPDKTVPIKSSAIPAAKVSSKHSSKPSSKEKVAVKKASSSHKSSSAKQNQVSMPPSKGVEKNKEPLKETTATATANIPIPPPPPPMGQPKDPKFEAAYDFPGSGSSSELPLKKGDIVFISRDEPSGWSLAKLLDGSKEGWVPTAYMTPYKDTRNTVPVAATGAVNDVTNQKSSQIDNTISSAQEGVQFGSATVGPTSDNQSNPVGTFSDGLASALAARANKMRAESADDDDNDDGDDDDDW
B2: SHO1 (protein, UniProt P40073 1-367, looked up)
High osmolarity signaling …: MSISSKIRPTPRKPSRMATDHSFKMKKFYADPFAISSISLAIVSWVIAIGGSISSASTNESFPRFTWWGIVYQFLIICSLMLFYCFDLVDHYRIFITTSIAVAFVYNTNSATNLVYADGPKKAAASAGVILLSIINLIWILYYGGDNASPTNRWIDSFSIKGIRPSPLENSLHRARRRGNRNTTPYQNNVYNDAIRDSGYATQFDGYPQQQPSHTNYVSSTALAGFENTQPNTSEAVNLHLNTLQQRINSASNAKETNDNSNNQTNTNIGNTFDTDFSNGNTETTMGDTLGLYSDIGDDNFIYKAKALYPYDADDDDAYEISFEQNEILQVSDIEGRWWKARRANGETGIIPSNYVQLIDGPEEMHR
B3: PEX13 (protein, UniProt P80667 1-386, looked up)
Peroxisomal membrane protein …: MSSTAVPRPKPWETSASLEEPQRNAQSLSAMMTSNQQDSRPTEESNNSNSASESAPEVLPRPAALNSSGTYGESNTIPGIYGNSNYGIPYDNNPYSMNSIYGNSIGRYGYGGSYYGNNYGSFYGGGYGAGAGYGMNNGSGLGESTKATFQLIESLIGAVTGFAQMLESTYMATHNSFFTMISVAEQFGNLKEMLGSFFGIFAIMKFLKKILYRATKGRLGIPPKNFAESEGSKNKLIEDFQKFNDSGTINSNEKATRRKISWKPLLFFLMAVFGFPYLLNKFITKLQTSGTIRASQGNGSEPIDPSKLEFARALYDFVPENPEMEVALKKGDLMAILSKKDPLGRDSDWWKVRTKNGNIGYIPYNYIEIIKRRKKIEHVDDETRTH
B4: MYO5 (protein, UniProt Q04439 1-1219, looked up)
Myosin-5: MAILKRGARKKVHQEPAKRSANIKKATFDSSKKKEVGVSDLTLLSKISDEAINENLKKRFLNATIYTYIGHVLISVNPFRDLGIYTDAVMNEYKGKNRLEVPPHVFAIAESMYYNMKSYNENQCVIISGESGAGKTEAAKRIMQYIAAASSTHTESIGKIKDMVLATNPLLESFGCAKTLRNNNSSRHGKYLEIKFNNQFEPCAGNITNYLLEKQRVVSQIKNERNFHIFYQFTKGASDAYRQTFGVQKPEQYVYTAAAGCISAETIDDLQDYQETLKAMRVIGLGQEEQDQIFRMLAAILWIGNVSFIENEEGNAQVRDTSVTDFVAYLLQIDSQLLIKSLVERIMETNHGMKRGSVYHVPLNIVQADAVRDALAKAIYNNLFDWIVSRVNKSLQAFPGAEKSIGILDIYGFEIFEHNSFEQICINYVNEKLQQIFIQLTLKSEQETYEREKIQWTPIKYFDNKVVCDLIEARRPPGIFAAMNDSVATAHADSNAADQAFAQRLNLFTTNPHFDLRSNKFVIKHYAGDVTYDIDGITDKNKDQLQKDLVELIGTTTNTFLATIFPDTVDRESKRRPPTAGDKIIKSANDLVETLSKAQPSYIRTIKPNETKSPNDYDDRQVLHQIKYLGLQENVRIRRAGFAYRQVFEKFVERFYLLSPHCSYAGDYTWQGDTLDAVKYILQDSSIPQQEYQLGVTSVFIKTPETLFALEHMRDRYWHNMAARIQRAWRRFLQRRIDAATKIQRTIRERKEGNKYEKLRDYGTKVLGGRKERRSMSLLGYRAFMGDYLSCNESKSKGAYIKRQVSIKEKVIFSIHGEALHTKFGRSAQRLKKTFLLTPTTLYIVGQTLVQNAMTYTQDYKIDVRNIQAVSLTNLQDDWVAIKLASSGQPDPLINTYFKTELITHLKRLNDKIQIKIGSAIEYQKKPGKLHSVKCQINESAPKYGDIYKSSTISVRRGNPPNSQVHKKPRKKSSISSGYHASSSQATRRPVSIAAAQHVPTAPASRHSKKPAPPPPGMQNKAATRRSVPNPASTLTASQSNARPSPPTAATRATPAATPAAAAMGSGRQANIPPPPPPPPPSSKPKEPMFEAAYDFPGSGSPSELPLKKGDVIYITREEPSGWSLGKLLDGSKEGWVPTAYMKPHSGNNNIPTPPQNRDVPKPVLNSVQHDNTSANVIPAAAQASLGDGLANALAARANKMRLESDDEEANEDEEEDDW
B5: PIN3 (protein, UniProt Q06449 2-215, looked up)
[PSI+] inducibility protein 3: SASLINRSLTNIRTELDFLKGSNVISNDVYDQINKSLPAKWDPANAPRNASPASLEYVEALYQFDPQQDGDLGLKPGDKVQLLEKLSPEWYKGSCNGRTGIFPANYVKPAFSGSNGPSNLPPPPQYKAQELQQIPTQNSAASSYQQQPFPPPSTNYYQQPQQQPQQAPPPQQQQQQQQHQSSHSHLKSFGSKLGNAAIFGAGASIGSDIVNNIF

system: 575 putative partners (preys) of 22 WT SH3-containing proteins; assay: DHFR-PCA on solid medium, WT and SH3-deleted baits (Fig. 1B); format: cell-based, Saccharomyces cerevisiae; conditions: number of PPIs; SH3 domain in its own protein; DHFR-PCA; Fig2D,S2F
Method in brief: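 In S. cerevisiae, 22 SH3-containing baits fused genomically to DHFR F[1,2], either WT or with each SH3 replaced via CRISPR by a poly-Gly/Ser linker, screened against 575 DHFR F[3] preys plus 40 negative controls in 1536 arrays, preys duplicated at randomized positions.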

Compared with B1, B2 is lower in “SH3-dependent PPIs” value: 17 for the first, 2 for the second.

Going from B3 to B4, the “SH3-dependent PPIs” value rises from 1 to 19.

For B5, the “SH3-dependent PPIs” value was 13.
